# In publication PMC10692737:
# Target: Rabbit skeletal muscle actin (filaments with free barbed ends) (rabbit) (UniProt P68135)
# Chain of C-terminal half of mouse CAP2, C-CAP2 (219–476)-6His (Q9CYT6 219-476): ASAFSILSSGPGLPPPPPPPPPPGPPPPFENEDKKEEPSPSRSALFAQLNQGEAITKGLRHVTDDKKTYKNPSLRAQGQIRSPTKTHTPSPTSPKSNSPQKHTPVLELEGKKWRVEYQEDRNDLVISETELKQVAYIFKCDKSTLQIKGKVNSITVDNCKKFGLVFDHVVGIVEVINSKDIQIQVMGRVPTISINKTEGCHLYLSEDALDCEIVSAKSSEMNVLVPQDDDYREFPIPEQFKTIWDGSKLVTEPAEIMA
substance,measurement,value
"C-terminal half of mouse CAP2, C-CAP2 (219–476)-6His (from UniProt Q9CYT6 219-476) (domain or fragment)","barbed end depolymerization rate in mf-TIRF, no actin monomers, 1 μM C-CAP2 (2.5- to 3-fold faster than control) (subunits s^−1)",10.8
